Holding throughout (type): biochemical, Homo sapiens
Common to all, as to conditions: PAPS

Substrate in series [1]: Oc1cccc2ccccc12
The series is described as follows: radiolabeled sulfonation assay, Km.

Substrate in series [2]: O=c1cc(-c2ccccc2)oc2cc(O)cc(O)c12
The series can be described thus: purified protein.

Substrate in series [3]: O=c1c(-c2ccc(O)cc2)coc2cc(O)cc(O)c12
The series is described as follows: purified protein.

Substrate in series [4]: O=c1cc(-c2ccc(O)cc2)oc2ccc(O)cc12
The series can be described thus: purified protein.

Substrate in series [5]: O=c1c(-c2ccc(O)cc2)coc2cc(O)ccc12
The series is described as follows: purified protein.

Substrate in series [6]: CC(C)(c1ccc(O)cc1)c1ccc(O)cc1
The series is described as follows: purified protein.

Substrate in series [7]: O=c1cc(-c2ccc(O)cc2)oc2cc(O)cc(O)c12
The series is described as follows: purified protein.

B1: human cytosolic sulfotransferase 1C4 (hSULT1C4) (Homo sapiens) (protein)
chain: MALHDMEDFTFDGTKRLSVNYVKGILQPTDTCDIWDKIWNFQAKPDDLLISTYPKAGTTWTQEIVELIQNEGDVEKSKRAPTHQRFPFLEMKIPSLGSGLEQAHAMPSPRILKTHLPFHLLPPSLLEKNCKIIYVARNPKDNMVSYYHFQRMNKALPAPGTWEEYFETFLAGKVCWGSWHEHVKGWWEAKDKHRILYLFYEDMKKNPKHEIQKLAEFIGKKLDDKVLDKIVHYTSFDVMKQNPMANYSSIPAEIMDHSISPFMRKGAVGDWKKHFTVAQNERFDEDYKKKMTDTRLTFHFQF
The Km is the concentration of substrate that gives half-maximal velocity. With B1, the Km worked out at 1.1 ± 0.2 µM in series [1]; 0.9 ± 0.4 µM in the series “purified protein [2]”; 3.3 ± 0.3 µM in the series “purified protein [3]”; 10.1 ± 2.1 µM in “purified protein [4]”; 10.5 ± 1.1 µM in the series “purified protein [5]”; 32.8 ± 3.2 µM in the series “purified protein [6]”. Also, in “purified protein [7]”, the Km stood at 1.7 ± 1.0 µM.

The record behind these values is publication PMC5608031.
